The supplement of paper PMC5998384

What was measured:
HeLa Kyoto [1] = experiment: solubility change mitosis vs G1/S (difference of NP-40 vs SDS log2 ratios) (log2 ratio difference); higher = more soluble in mitosis
HeLa Kyoto [2] = experiment: solubility in G1/S (NP-40 vs SDS abundance) (log2 ratio); higher = more soluble; details: cell cycle stage: G1/S
HeLa Kyoto [3] = experiment: melting temperature (median over replicates), in situ; higher = more thermally stable
HeLa Kyoto [4] = experiment: thermal stability score vs G1/S (z-score of summed log2 fold changes over temperatures); higher = more thermally stable than in G1/S
[5] = cell cycle stage: early G1 (4.5 h after nocodazole release)
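Wherever melting temperature (median over replicates), in situ is given: HeLa Kyoto cells synchronized by double thymidine or nocodazole block, proteins quantified by TMT10plex mass spectrometry, three independent biological replicates.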
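Wherever solubility change mitosis vs G1/S (difference of NP-40 vs SDS log2 ratios) is given: synchronized HeLa Kyoto cells (double thymidine block for G1/S, nocodazole release for mitosis), protein amounts in NP-40 versus SDS lysates quantified by mass spectrometry, three biological replicates.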
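Wherever solubility in G1/S (NP-40 vs SDS abundance) is given: HeLa Kyoto cells arrested at G1/S by double thymidine block, proteins quantified by TMT10plex mass spectrometry in mild NP-40 versus SDS extracts, three biological replicates.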
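Wherever thermal stability score vs G1/S (z-score of summed log2 fold changes over temperatures) is given: synchronized HeLa Kyoto cells, proteins quantified by TMT10plex mass spectrometry, three biological replicates, mitosis taken 0.5 h after nocodazole release, G1/S directly after double thymidine block.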

Sequence | solubility change mitosis (log2) (HeLa Kyoto [1]) | solubility in G1/S (log2) (HeLa Kyoto [2]) | melting temperature (HeLa Kyoto [3]; cell cycle stage: G1/S) [°C] | melting temperature (HeLa Kyoto [3]; cell cycle stage: mitosis) [°C] | thermal stability score (HeLa Kyoto [4]; [5]) | thermal stability score (HeLa Kyoto [4]; cell cycle stage: mitosis)
MDHYDSQQTNDYMQPEEDWDRDLLLDPAWEKQQRKTFTAWCNSHLRKAGTQIENIEEDFRDGLKLMLLLEVISGERLAKPERGKMRVHKISNVNKALDFIASKGVKLVSIGAEEIVDGNVKMTLGMIWTIILRFAIQDISVEETSAKEGLLLWCQRKTAPYKNVNIQNFHISWKDGLGFCALIHRHRPELIDYGKLRKDDPLTNLNTAFDVAEKYLDIPKMLDAEDIVGTARPDEKAIMTYVSSFYHAFSGAQKAETAANRICKVLAVNQENEQLMEDYEKLASDLLEWIRRTIPWLENRVPENTMHAMQQKLEDFRDYRRLHKPPKVQEKCQLEINFNTLQTKLRLSNRPAFMPSEGRMVSDINNAWGCLEQVEKGYEEWLLNEIRRLERLDHLAEKFRQKASIHEAWTDGKEAMLRQKDYETATLSEIKALLKKHEAFESDLAAHQDRVEQIAAIAQELNELDYYDSPSVNARCQKICDQWDNLGALTQKRREALERTEKLLETIDQLYLEYAKRAAPFNNWMEGAMEDLQDTFIVHTIEEIQGLTTAHEQFKATLPDADKERLAILGIHNEVSKIVQTYHVNMAGTNPYTTITPQEINGKWDHVRQLVPRRDQALTEEHARQQHNERLRKQFGAQANVIGPWIQTKMEEIGRISIEMHGTLEDQLSHLRQYEKSIVNYKPKIDQLEGDHQLIQEALIFDNKHTNYTMEHIRVGWEQLLTTIARTINEVENQILTRDAKGISQEQMNEFRASFNHFDRDHSGTLGPEEFKACLISLGYDIGNDPQGEAEFARIMSIVDPNRLGVVTFQAFIDFMSRETADTDTADQVMASFKILAGDKNYITMDELRRELPPDQAEYCIARMAPYTGPDSVPGALDYMSFSTALYGESDL [ACTN1] | 0.09 | -0.1 | 58.3 | 55.9 | -0.623 | -1.86
MDISTRSKDPGSAERTAQKRKFPSPPHSSNGHSPQDTSTSPIKKKKKPGLLNSNNKEQSELRHGPFYYMKQPLTTDPVDVVPQDGRNDFYCWVCHREGQVLCCELCPRVYHAKCLRLTSEPEGDWFCPECEKITVAECIETQSKAMTMLTIEQLSYLLKFAIQKMKQPGTDAFQKPVPLEQHPDYAEYIFHPMDLCTLEKNAKKKMYGCTEAFLADAKWILHNCIIYNGGNHKLTQIAKVVIKICEHEMNEIEVCPECYLAACQKRDNWFCEPCSNPHPLVWAKLKGFPFWPAKALRDKDGQVDARFFGQHDRAWVPINNCYLMSKEIPFSVKKTKSIFNSAMQEMEVYVENIRRKFGVFNYSPFRTPYTPNSQYQMLLDPTNPSAGTAKIDKQEKVKLNFDMTASPKILMSKPVLSGGTGRRISLSDMPRSPMSTNSSVHTGSDVEQDAEKKATSSHFSASEESMDFLDKSTASPASTKTGQAGSLSGSPKPFSPQLSAPITTKTDKTSTTGSILNLNLDRSKAEMDLKELSESVQQQSTPVPLISPKRQIRSRFQLNLDKTIESCKAQLGINEISEDVYTAVEHSDSEDSEKSDSSDSEYISDDEQKSKNEPEDTEDKEGCQMDKEPSAVKKKPKPTNPVEIKEELKSTSPASEKADPGAVKDKASPEPEKDFSEKAKPSPHPIKDKLKGKDETDSPTVHLGLDSDSESELVIDLGEDHSGREGRKNKKEPKEPSPKQDVVGKTPPSTTVGSHSPPETPVLTRSSAQTSAAGATATTSTSSTVTVTAPAPAATGSPVKKQRPLLPKETAPAVQRVVWNSSSKFQTSSQKWHMQKMQRQQQQQQQQNQQQQPQSSQGTRYQTRQAVKAVQQKEITQSPSTSTITLVTSTQSSPLVTSSGSMSTLVSSVNADLPIATASADVAADIAKYTSKMMDAIKGTMTEIYNDLSKNTTGSTIAEIRRLRIEIEKLQWLHQQELSEMKHNLELTMAEMRQSLEQERDRLIAEVKKQLELEKQQAVDETKKKQWCANCKKEAIFYCCWNTSYCDYPCQQAHWPEHMKSCTQSATAPQQEADAEVNTETLNKSSQGSSSSTQSAPSETASASKEKETSAEKSKESGSTLDLSGSRETPSSILLGSNQGSDHSRSNKSSWSSSDEKRGSTRSDHNTSTSTKSLLPKESRLDTFWD [ZMYND8] | 0.163 | -0.387 | 48.5 | 50.2 | 1.53 | 3.16
MDKVCAVFGGSRGIGRAVAQLMARKGYRLAVIARNLEGAKAAAGDLGGDHLAFSCDVAKEHDVQNTFEELEKHLGRVNFLVNAAGINRDGLLVRTKTEDMVSQLHTNLLGSMLTCKAAMRTMIQQQGGSIVNVGSIVGLKGNSGQSVYSASKGGLVGFSRALAKEVARKKIRVNVVAPGFVHTDMTKDLKEEHLKKNIPLGRFGETIEVAHAVVFLLESPYITGHVLVVDGGLQLIL [CBR4] | -0.0343 | 0.0654 | 54 | 55.2 | 1.14 | -0.318
MDLAAAAEPGAGSQHLEVRDEVAEKCQKLFLDFLEEFQSSDGEIKYLQLAEELIRPERNTLVVSFVDLEQFNQQLSTTIQEEFYRVYPYLCRALKTFVKDRKEIPLAKDFYVAFQDLPTRHKIRELTSSRIGLLTRISGQVVRTHPVHPELVSGTFLCLDCQTVIRDVEQQFKYTQPNICRNPVCANRRRFLLDTNKSRFVDFQKVRIQETQAELPRGSIPRSLEVILRAEAVESAQAGDKCDFTGTLIVVPDVSKLSTPGARAETNSRVSGVDGYETEGIRGLRALGVRDLSYRLVFLACCVAPTNPRFGGKELRDEEQTAESIKNQMTVKEWEKVFEMSQDKNLYHNLCTSLFPTIHGNDEVKRGVLLMLFGGVPKTTGEGTSLRGDINVCIVGDPSTAKSQFLKHVEEFSPRAVYTSGKASSAAGLTAAVVRDEESHEFVIEAGALMLADNGVCCIDEFDKMDVRDQVAIHEAMEQQTISITKAGVKATLNARTSILAAANPISGHYDRSKSLKQNINLSAPIMSRFDLFFILVDECNEVTDYAIARRIVDLHSRIEESIDRVYSLDDIRRYLLFARQFKPKISKESEDFIVEQYKHLRQRDGSGVTKSSWRITVRQLESMIRLSEAMARMHCCDEVQPKHVKEAFRLLNKSIIRVETPDVNLDQEEEIQMEVDEGAGGINGHADSPAPVNGINGYNEDINQESAPKASLRLGFSEYCRISNLIVLHLRKVEEEEDESALKRSELVNWYLKEIESEIDSEEELINKKRIIEKVIHRLTHYDHVLIELTQAGLKGSTEGSESYEEDPYLVVNPNYLLED [MCM6] | -0.0695 | -0.0881 | 50.6 | 50.7 | 3.18 | 4.76
MDLENKVKKMGLGHEQGFGAPCLKCKEKCEGFELHFWRKICRNCKCGQEEHDVLLSNEEDRKVGKLFEDTKYTTLIAKLKSDGIPMYKRNVMILTNPVAAKKNVSINTVTYEWAPPVQNQALARQYMQMLPKEKQPVAGSEGAQYRKKQLAKQLPAHDQDPSKCHELSPREVKEMEQFVKKYKSEALGVGDVKLPCEMDAQGPKQMNIPGGDRSTPAAVGAMEDKSAEHKRTQYSCYCCKLSMKEGDPAIYAERAGYDKLWHPACFVCSTCHELLVDMIYFWKNEKLYCGRHYCDSEKPRCAGCDELIFSNEYTQAENQNWHLKHFCCFDCDSILAGEIYVMVNDKPVCKPCYVKNHAVVCQGCHNAIDPEVQRVTYNNFSWHASTECFLCSCCSKCLIGQKFMPVEGMVFCSVECKKRMS [TES] | -0.111 | 0.0767 | 52 | 52.3 | -0.92 | -1.54
MDLGAITKYSALHAKPNGLILQYGTAGFRTKAEHLDHVMFRMGLLAVLRSKQTKSTIGVMVTASHNPEEDNGVKLVDPLGEMLAPSWEEHATCLANAEEQDMQRVLIDISEKEAVNLQQDAFVVIGRDTRPSSEKLSQSVIDGVTVLGGQFHDYGLLTTPQLHYMVYCRNTGGRYGKATIEGYYQKLSKAFVELTKQASCSGDEYRSLKVDCANGIGALKLREMEHYFSQGLSVQLFNDGSKGKLNHLCGADFVKSHQKPPQGMEIKSNERCCSFDGDADRIVYYYHDADGHFHLIDGDKIATLISSFLKELLVEIGESLNIGVVQTAYANGSSTRYLEEVMKVPVYCTKTGVKHLHHKAQEFDIGVYFEANGHGTALFSTAVEMKIKQSAEQLEDKKRKAAKMLENIIDLFNQAAGDAISDMLVIEAILALKGLTVQQWDALYTDLPNRQLKVQVADRRVISTTDAERQAVTPPGLQEAINDLVKKYKLSRAFVRPSGTEDVVRVYAEADSQESADHLAHEVSLAVFQLAGGIGERPQPGF [PGM3] | -0.0835 | 0.186 | 51.4 | 51.2 | -0.282 | -0.735
MDLGPLNICEEMTILHGGFLLAEQLFHPKALAELTKSDWERVGRPIVEALREISSAAAHSQPFAWKKKALIIIWAKVLQPHPVTPSDTETRWQEDLFFSVGNMIPTINHTILFELLKSLEASGLFIQLLMALPTTICHAELERFLEHVTVDTSAEDVAFFLDVWWEVMKHKGHPQDPLLSQFSAMAHKYLPALDEFPHPPKRLRSDPDACPTMPLLAMLLRGLTQIQSRILGPGRKCCALANLADMLTVFALTEDDPQEVSATVYLDKLATVISVWNSDTQNPYHQQALAEKVKEAERDVSLTSLAKLPSETIFVGCEFLHHLLREWGEELQAVLRSSQGTSYDSYRLCDSLTSFSQNATLYLNRTSLSKEDRQVVSELAECVRDFLRKTSTVLKNRALEDITASIAMAVIQQKMDRHMEVCYIFASEKKWAFSDEWVACLGSNRALFRQPDLVLRLLETVIDVSTADRAIPESQIRQVIHLILECYADLSLPGKNKVLAGILRSWGRKGLSEKLLAYVEGFQEDLNTTFNQLTQSASEQGLAKAVASVARLVIVHPEVTVKKMCSLAVVNLGTHKFLAQILTAFPALRFVEEQGPNSSATFMVSCLKETVWMKFSTPKEEKQFLELLNCLMSPVKPQGIPVAALLEPDEVLKEFVLPFLRLDVEEVDLSLRIFIQTLEANACREEYWLQTCSPFPLLFSLCQLLDRFSKYWQLPKEKRCLSLDRKDLAIHILELLCEIVSANAETFSPDVWIKSLSWLHRKLEQLDWTVGLRLKSFFEGHFKCEVPATLFEICKLSEDEWTSQAHPGYGAGTGLLAWMECCCVSSGISERMLSLLVVDVGNPEEVRLFSKGFLVALVQVMPWCSPQEWQRLHQLTRRLLEKQLLHVPYSLEYIQFVPLLNLKPFAQELQLSVLFLRTFQFLCSHSCRDWLPLEGWNHVVKLLCGSLTRLLDSVRAIQAAGPWVQGPEQDLTQEALFVYTQVFCHALHIMAMLHPEVCEPLYVLALETLTCYETLSKTNPSVSSLLQRAHEQRFLKSIAEGIGPEERRQTLLQKMSSF [GEMIN4] | -0.14 | -0.428 | 47 | 49.3 | 0.771 | 3.29
MDLSGVKKKSLLGVKENNKKSSTRAPSPTKRKDRSDEKSKDRSKDKGATKESSEKDRGRDKTRKRRSASSGSSSTRSRSSSTSSSGSSTSTGSSSGSSSSSASSRSGSSSTSRSSSSSSSSGSPSPSRRRHDNRRRSRSKSKPPKRDEKERKRRSPSPKPTKVHIGRLTRNVTKDHIMEIFSTYGKIKMIDMPVERMHPHLSKGYAYVEFENPDEAEKALKHMDGGQIDGQEITATAVLAPWPRPPPRRFSPPRRMLPPPPMWRRSPPRMRRRSRSPRRRSPVRRRSRSPGRRRHRSRSSSNSSR [RNPS1] | 0.52 | -0.501 | 48.9 | 50 | 0.608 | 1.88
MDNLSDTLKKLKITAVDKTEDSLEGCLDCLLQALAQNNTETSEKIQASGILQLFASLLTPQSSCKAKVANIIAEVAKNEFMRIPCVDAGLISPLVQLLNSKDQEVLLQTGRALGNICYDSHEGRSAVDQAGGAQIVIDHLRSLCSITDPANEKLLTVFCGMLMNYSNENDSLQAQLINMGVIPTLVKLLGIHCQNAALTEMCLVAFGNLAELESSKEQFASTNIAEELVKLFKKQIEHDKREMIFEVLAPLAENDAIKLQLVEAGLVECLLEIVQQKVDSDKEDDITELKTGSDLMVLLLLGDESMQKLFEGGKGSVFQRVLSWIPSNNHQLQLAGALAIANFARNDANCIHMVDNGIVEKLMDLLDRHVEDGNVTVQHAALSALRNLAIPVINKAKMLSAGVTEAVLKFLKSEMPPVQFKLLGTLRMLIDAQAEAAEQLGKNVKLVERLVEWCEAKDHAGVMGESNRLLSALIRHSKSKDVIKTIVQSGGIKHLVTMATSEHVIMQNEALVALALIAALELGTAEKDLESAKLVQILHRLLADERSAPEIKYNSMVLICALMGSECLHKEVQDLAFLDVVSKLRSHENKSVAQQASLTEQRLTVES [RAP1GDS1] | -0.0374 | 0.111 | 50.2 | 49.8 | 1.29 | 1.87
